# Laboratory results: patent US20250346679A1 (INVOX PHARMA, published 2025)
# Where a chain is given by its changes, count along the chain named.
# T1: human OX40 (human, UniProt P43489 29-216)
# T1 sequence (looked up): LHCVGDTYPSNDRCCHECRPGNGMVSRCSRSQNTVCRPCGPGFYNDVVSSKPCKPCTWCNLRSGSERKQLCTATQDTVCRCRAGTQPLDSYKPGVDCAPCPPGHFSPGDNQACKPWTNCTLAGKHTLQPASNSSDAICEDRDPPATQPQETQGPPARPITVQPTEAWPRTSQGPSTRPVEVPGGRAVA
# T2: human GITR (human, UniProt Q9Y5U5 26-161, limits assumed)
# T2 sequence (looked up): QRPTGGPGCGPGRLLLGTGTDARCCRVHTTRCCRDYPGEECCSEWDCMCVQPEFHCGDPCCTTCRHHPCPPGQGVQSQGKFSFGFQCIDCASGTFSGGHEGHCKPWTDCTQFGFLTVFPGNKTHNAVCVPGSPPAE
# T3: cCD137-mFc-Avi (cynomolgus; mouse)
# T3 construct: also called cynomolgus CD137-mFc-Avi; Cyno CD137-mFc-Avi; not shown: mouse IgG2a Fc domain (mIgG2a Fc)
# T3 chain: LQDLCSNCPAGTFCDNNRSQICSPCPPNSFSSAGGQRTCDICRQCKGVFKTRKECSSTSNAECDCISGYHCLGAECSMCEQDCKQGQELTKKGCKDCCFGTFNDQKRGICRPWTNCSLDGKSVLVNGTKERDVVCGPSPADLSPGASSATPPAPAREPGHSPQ
# B1: FS22-053-008/HeID1.3 (bispecific antibody, human IgG1, kappa)
# heavy: QVQLQESGPGLVRPSQTLSLTCTVSGSTFSGYGVNWVRQPPGRGLEWIGMIWGDGNTDYNSALKSRVTMLVDTSKNQFSLRLSSVTAADTAVYYCARERDYRLDYWGQGSLVTVSSASTKGPSVFPLAPSSKSTSGGTAALGCLVKDYFPEPVTVSWNSGALTSGVHTFPAVLQSSGLYSLSSVVTVPSSSLGTQTYICNVNHKPSNTKVDKKVEPKSCDKTHTCPPCPAPELLGGPSVFLFPPKPKDTLMISRTPEVTCVVVDVSHEDPEVKFNWYVDGVEVHNAKTKPREEQYNSTYRVVSVLTVLHQDWLNGKEYKCKVSNKALPAPIEKTISKAKGQPREPQVYTLPPSRDELNPPYLFSNQVSLTCLVKGFYPSDIAVEWESNGQPENNYKTTPPVLDSDGSFFLYSKLTVDYWRWLEGNVFSCSVMHEALHNHYTQKSLSLSPG
# light: DIQMTQSPASLSASVGETVTITCRASGNIHNYLAWYQQKQGKSPQLLVYNAKTLADGVPSRFSGSGSGTQYSLKINSLQPEDFGSYYCQHFWSTPRTFGGGTKLEIKRTVAAPSVFIFPPSDEQLKSGTASVVCLLNNFYPREAKVQWKVDNALQSGNSQESVTEQDSKDSTYSLSSTLTLSKADYEKHKVYACEVTHQGLSSPVTKSFNRGEC
# notes: mock mAb^2; also called FS22-053-008 (mock mAb^2 format)
# B2: FS22-172-004/HeID1.3 (bispecific antibody, human IgG1, kappa)
# heavy: B1 heavy with P359Y, P360I, L362P, F363P, S364Y, D417G, Y418A, W419D
# light: B1 light
# notes: mock mAb^2
# B3: FS22-053-011/HeID1.3 (bispecific antibody, human IgG1, kappa)
# heavy: B1 heavy with L422T, E423D
# light: B1 light
# notes: mock mAb^2; also called FS22-053-011 (mock mAb^2 format)
# B4: FS22-172-003/HeID1.3 (bispecific antibody, human IgG1, kappa)
# heavy: B1 heavy with N358P, P359Y, P360I, Y361I, L362P, F363P, S364Y, D417G, Y418A, W419D
# light: B1 light
# notes: mock mAb^2 without LALA
# B5: G1-AA/lam-G02v3 (antibody, human IgG1, L234A L235A, V domains shown)
# VH: EVQLVQSGAEVKRPGASVKVSCKASGYTFTSYGISWVRQAPGQGLEWMGWISAYSGGTNYAQKLQGRVTMTTDTSTSTAYMELRSLRSDDTAVYYCARDLFPTIFGVSYYYYWGQGTLVTVSS
# VL: QSALTQPASVSGSPGQSITISCTGTSSDVGGYNYVSWYQQFPGKAPKLMIFEVTNRPSGVSDRFSGSKSDNTASLTISGLQAEDEAEYYCSSFKRGSTLVVFG
# notes: anti-PD-L1 IgG1 with LALA, lambda light chain; also called G1-AA/lambdav3; G1-AA/Iam-G02v3
# B6: G1-AA/G12v2 (antibody, human IgG1, kappa, L234A L235A, V domains shown)
# VH: B5 VH
# VL: DIQMTQSPSTLSASVGDRVTITCRASQSISGRLAWYQQKPGKAPNLLIYEASNLESGVPSRFSGSGSGTEFTLTISSLQPEDFATYYCQQSYSWPRTFGQGTKVEIKR
# notes: anti-PD-L1 IgG1 with LALA
# B7: G1-AA/E05v2 (antibody, human IgG1, kappa, L234A L235A, V domains shown)
# VH: B5 VH
# VL: DIQMTQSPSTLSASVGDRVTITCRASQSISGRLAWYQQKPGKAPNLLIYEASNLESGVPSRFSGSGSGTEFTLTISSLQPEDFATYYCQQSYSTPRVTFGQGTKVEIKR
# notes: anti-PD-L1 IgG1 with LALA
# Target: T1, human OX40
# Experiment: SPR, receptor amine-coupled to CM5 (~1000 RU)
# Description: (§1) The specificity of the anti-human CD137 Fcabs for human CD137 compared to other related TNFSFR family members was tested. 8 of the Fcabs were tested in mock mAb² (HeID1.3) format and measured by SPR in a Biacore T200 (GE Healthcare) by testing for binding to other human TNFRSF receptors: CD40, OX40 and GITR. Amine coupling (amine coupling kit, GE Healthcare, BR-1000-50) was used to coat human CD40, GITR and OX40 to approximately 1000 RU in Biacore CM5 chips (GE Healthcare, cat no 29149603). […] The chip was regenerated by injection of 10 mM glycine pH 2.5 for 12 s at 30 μl/min. Antibodies specific to the different TNFRSF members were used as positive controls to verify Biacore chip coating. Data was double reference subtracted and analysed using BIAevaluation 3.2 software.
row,binding result,Binder
1,no binding (tested: 1 µM),B1
2,no binding (tested: 1 µM),B2
3,no binding (tested: 1 µM),B3
4,no binding (tested: 1 µM),B4

# Target: T2, human GITR
# Experiment: SPR, receptor amine-coupled to CM5 (~1000 RU)
# Description: as §1
row,binding result,Binder
1,no binding (tested: 1 µM),B1
2,no binding (tested: 1 µM),B2
3,no binding (tested: 1 µM),B3
4,no binding (tested: 1 µM),B4

# Target: human CD40 (human, UniProt P25942 21-193, limits assumed)
# Sequence (P25942 21-193 limits assumed): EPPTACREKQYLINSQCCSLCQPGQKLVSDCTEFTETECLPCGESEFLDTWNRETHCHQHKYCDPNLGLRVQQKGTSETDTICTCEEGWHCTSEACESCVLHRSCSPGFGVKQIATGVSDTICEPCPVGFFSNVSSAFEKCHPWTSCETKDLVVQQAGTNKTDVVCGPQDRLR
# Experiment: SPR, receptor amine-coupled to CM5 (~1000 RU)
# Description: as §1
row,binding result,Binder
1,no binding (tested: 1 µM),B1
2,no binding (tested: 1 µM),B2
3,no binding (tested: 1 µM),B3
4,no binding (tested: 1 µM),B4

# Target: human CD137, cell-surface (human, UniProt Q07011 24-255)
# Sequence (Q07011 24-255): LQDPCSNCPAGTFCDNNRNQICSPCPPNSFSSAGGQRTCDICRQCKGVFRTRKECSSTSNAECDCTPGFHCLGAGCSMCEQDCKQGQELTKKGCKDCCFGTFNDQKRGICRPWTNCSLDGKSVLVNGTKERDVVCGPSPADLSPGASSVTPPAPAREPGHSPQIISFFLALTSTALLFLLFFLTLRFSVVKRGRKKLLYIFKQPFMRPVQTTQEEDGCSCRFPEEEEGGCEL
# Experiment: cell-based or functional assay
row,"EC50, NF-κB luciferase assay, crosslinked with Protein L (+XL)",Binder
1,26.3 nM,B1
2,32.6 nM,B4

# Target: T4, hCD137-mFc-Avi (human; mouse, UniProt Q07011 24-186, biotin on the Avi sequence where the biotinylated form was used)
# T4 construct: also called human CD137-mFc-Avi; dimeric human CD137; not shown: mouse IgG2a Fc domain (mIgG2a Fc)
# T4 sequence (Q07011 24-186): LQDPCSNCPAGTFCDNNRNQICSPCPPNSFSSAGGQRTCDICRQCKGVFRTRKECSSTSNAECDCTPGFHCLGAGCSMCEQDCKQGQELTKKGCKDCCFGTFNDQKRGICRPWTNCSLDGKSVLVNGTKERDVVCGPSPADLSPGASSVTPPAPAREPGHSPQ
# Experiment: SPR, mAb^2 captured by anti-human Fab, antigen in flow, 1:1 Langmuir fit
# Description: (§2) An anti-human Fab capture antibody was immobilised on all four flow cells of a CM5 series S chip (GE Healthcare #BR-1005-30) to an average surface density of 6000 RU following the manufacturer's recommendations (GE Healthcare, human Fab capture Kit, #28958325). […] Each mAb² was captured to approximately 150 RU by injecting a 3 μg/ml solution of mAb² diluted in HBS-EP+ buffer (GE Healthcare #BR1006-69) for 60 seconds at 30 μl/min. Then different concentrations of human, cyno or mouse CD137 antigen (unbiotinylated human, cyno or mouse CD137-mFc-Avi or human CD137-Avi-His) in HBS-EP+ buffer were flowed over the chip for 3 min at 60 μl/min and then allowed to dissociate for 10 minutes. After each antigen concentration the chip was regenerated by infecting 10 mM glycine pH 2.1 at a flow rate of 30 μl/min for 30 seconds. Buffer HBS-EP+ was injected before the highest concentration of antigen and after the lowest concentration of antigen for reference subtraction, and one of the concentrations at random was repeated twice. The binding kinetics were fit with a 1:1 Langmuir model to generate equilibrium binding constants (KD) for each sample. Data analysis was performed with BiaEvaluation software version 3.2.
row,Kd,Binder
1,4.2 nM,B1
2,4.3 nM,B2
3,5.5 nM,B3
4,1.5 nM,B4

# Target: T5, hCD137-Avi-His (human, UniProt Q07011 24-186)
# T5 construct: also called human CD137-Avi-His; monomeric human CD137
# T5 sequence (Q07011 24-186): as above
# Experiment: as above
# Description: as §2
row,Human monomeric CD137 KD fold difference relative to human dimeric KD,Binder
1,170 fold,B1
2,> 200 fold,B2
3,> 200 fold,B3
4,> 200 fold,B4

# Target: T3, cCD137-mFc-Avi
# Experiment: as above
# Description: as §2
row,Kd,Binder
1,0.9 nM,B1
2,3.5 nM,B2
3,1.3 nM,B3
4,1.3 nM,B4

# Target: T6, cPD-L1-His (Acro Biosystems, PD1-C52H4) (cynomolgus, UniProt Q9NZQ7 19-238 (human entry))
# T6 construct: bought; also called Cyno PD-L1-His; Cynomolgus PD-L1-His; not shown: His tag of the bought product
# T6 sequence (Q9NZQ7 other isoform, or with tags, fused parts or gaps): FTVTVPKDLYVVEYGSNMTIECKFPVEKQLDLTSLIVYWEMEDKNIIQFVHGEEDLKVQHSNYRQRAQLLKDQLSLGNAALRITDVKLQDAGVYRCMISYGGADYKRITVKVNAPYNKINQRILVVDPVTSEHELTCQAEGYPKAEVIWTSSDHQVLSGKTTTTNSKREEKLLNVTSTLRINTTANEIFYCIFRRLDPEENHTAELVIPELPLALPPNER
# Experiment: SPR, antibody captured on Protein A chip, antigen in flow
row,Kd,Binder
1,2.45 nM,B5
2,0.75 nM,B6
3,0.89 nM,B7

# Target: T7, biotinylated hPD-L1-Avi-His (Acro Biosystems, PD1-H82E5) (human, UniProt Q9NZQ7 19-238, biotinylated)
# T7 construct: bought; also called Human PD-L1-His; not shown: Avi and His tags of the bought product
# T7 sequence (Q9NZQ7 19-238): as the sequence (Q9NZQ7 other isoform, or with tags, fused parts or gaps) above, with T33A, S34A, N62S, Q68R, R82Q, L173F, A185T, I192T, L215H counted along it
# Experiment: as above
row,Kd,Binder
1,1.34 nM,B5
2,0.44 nM,B6
3,0.5 nM,B7
